We go through four molecules from US20100129346A1 (G2 INFLAMMATION, published 2010).

In experiment [1] the target is T1, Biotinylated Human C5aR Peptide (2nd loop), peptide 23 (human, N-terminal biotin).
T1 construct: immobilised on a streptavidin sensor chip for BIACore; also called Biotinylated-Peptide 23; Biot-peptide
T1 peptide: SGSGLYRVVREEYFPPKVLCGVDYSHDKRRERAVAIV
In words: SPR (BIACore 2000), biotinylated peptide 23 on SA chip, mAb as analyte. A general note: SPR reads the build-up and loss of mass on a sensor chip optically.

The target of experiment [2] is T2, 12-mer peptide VREEYFPPKVLC of the human C5aR second extracellular loop (human).
T2 construct: Parent peptide of the alanine scan; each mutant has one residue replaced by alanine
T2 peptide: Biotin-GSGSVREEYFPPKVLC
Description: peptide ELISA, biotinylated peptide on streptavidin-coated plates [b]. The method, then: Streptavidin-coated microtiter plates (NUNC) were coated with 10 μg/ml of peptide/well in a volume of 200 μl, and incubated at 4° C. overnight. Plates were washed three times with ELISA wash buffer (0.05% Tween 20 in PBS). MAbs were added at 2.5 μg/ml, and plates were incubated for 3 hrs at room temperature. HRP-conjugated rabbit anti-mouse IgG antibody diluted 1:1000 in ELISA wash buffer was used for detection. Plates were developed using TMB (3,3′,5,5′ tetramethyl benzidine, SIGMA) and read at […].
On the technique in general: In an ELISA, binding on a coated surface is turned into a signal by an enzyme label.

Experiment [3] has as its target T3, human C5aR (human, UniProt P21730 1-350).
T3 construct: On human neutrophils, on hC5aR-transfected L1.2 cells or on neutrophils of hC5aR knock-in mice; also called hC5aR; C5a receptor
T3 chain: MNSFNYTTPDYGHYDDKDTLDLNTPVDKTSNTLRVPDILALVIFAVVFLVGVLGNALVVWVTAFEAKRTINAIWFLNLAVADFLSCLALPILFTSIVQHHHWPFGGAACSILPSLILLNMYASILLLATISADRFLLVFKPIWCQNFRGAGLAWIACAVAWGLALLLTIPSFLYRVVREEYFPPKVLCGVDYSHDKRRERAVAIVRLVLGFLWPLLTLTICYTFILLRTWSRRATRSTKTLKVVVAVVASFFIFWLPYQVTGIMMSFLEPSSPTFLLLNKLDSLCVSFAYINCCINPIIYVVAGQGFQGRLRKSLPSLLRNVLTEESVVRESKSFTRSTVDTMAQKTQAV
Description: competitive 125I-C5a ligand binding to hC5aR on human neutrophils; blocked ligand human C5a; 3 experiments; the table's column has no unit, nM is that of the axis Log Conc (nM). The method, then:
(§1) Human neutrophils were washed and re-suspended in binding buffer (50 mM HEPES, pH7.5, 1 mM CaCl2, 5 mM MgCl2, and 0.5% BSA) at 1×10⁷/ml. For each binding reaction (in a final volume of 120 μl), 40 μl cell suspension (4×10⁵ cells) with an appropriate amount of anti-hC5aR mAb, isotype matched control mAb or unlabelled human C5a (SIGMA) was incubated at room temperature for 15 min. ¹²⁵I-labelled human C5a (Perkin Elmer) was added at a final concentration of 0.4 nM and the reactions were incubated at room temperature for 60 min. Cells were then collected and washed 3 times with binding buffer containing 150 mM NaCl. Cells were then transferred to Opti plates (Perkin Elmer) with MicroScint 20 scintillation fluid and radioactivity counted on TopCount (Packard). Each sample was assayed in triplicate.
(§2) Further competitive ligand binding studies were conducted to measure ¹²⁵I-C5a displacement from hC5aR on hC5aR-transfected L1.2 cells with 7F3 or 3C5.

For experiment [4], the target named is T3, human C5aR. In words: displacement of 125I-C5a from hC5aR on hC5aR-transfected L1.2 cells. (Loss of bound radioactivity is the signal in a displacement assay; it reports binding, not function.)
For experiment [5], the target named is T1, Biotinylated Human C5aR Peptide (2nd …). In words: SPR (BIACore), biotinylated peptide 23 on SA chip; experiment 3 (25 nM-0.78 nM, 5 min dissociation).
Experiment [6] has as its target T3, human C5aR. In words: competition with 125I-C5a (0.4 nM) for binding to human neutrophils.
Experiment [7] concerns the target T1, Biotinylated Human C5aR Peptide (2nd …). Description: SPR (BIACore), biotinylated peptide 23 on SA chip; experiment 2 (100 nM-0.78 nM, 20 min dissociation). The method, then:
(§3) Additional BIACore analyses were performed to compare binding affinities of antibodies 7F3 and 3C5 to peptide 23 under varying conditions. The conditions for these additional BIAcore experiments were as described above under “Experimental Details” with the following modifications: [0295] Experiment 2: Antibody concentrations included in kinetic analysis—100 nM-0.78 nM; 20 min dissociation. [0296] Experiment 3: Antibody concentrations included in kinetic analysis—7F3: 25 nM-0.78 nM,; 3C5: 6.25nM-0.78nM; 5 min dissociation. [0297] Experiment 4: Antibody concentrations included in kinetic analysis—7F3: 25 nM-1.56 nM,; 3C5: 6.25 nM-0.4 nM; 1 min association, 3 min dissociation.

Experiment [8] has the same target. Description: SPR (BIACore), biotinylated peptide 23 on SA chip; experiment 1.
For experiment [9] the target is unchanged. Description: SPR (BIACore), biotinylated peptide 23 on SA chip; experiment 4 (25 nM-1.56 nM, 1 min association, 3 min dissociation).
The target of experiment [10] is T3, human C5aR. Description: displacement of 125I-C5a from hC5aR on hC5aR-transfected L1.2 cells; hC5aR-transfected L1.2 cells.
For experiment [11], the target named is T1, Biotinylated Human C5aR Peptide (2nd …). Description: SPR (BIACore), biotinylated peptide 23 on SA chip; reference 7F3.
Experiment [12] deals with T3, human C5aR. Description: competition with 125I-C5a (0.4 nM) for binding to human neutrophils; human neutrophils. The method, then:
as §1, §2

For experiment [13], the target named is T1, Biotinylated Human C5aR Peptide (2nd …). Description: SPR (BIACore), biotinylated peptide 23 on SA chip; experiment 3 (6.25 nM-0.78 nM, 5 min dissociation). The method, then: as §3
The target is the same in experiment [14]. Description: SPR (BIACore), biotinylated peptide 23 on SA chip; experiment 4 (6.25 nM-0.4 nM, 1 min association, 3 min dissociation). The method, then:
as §3

No end group written: not given here. *: point of attachment. Biotin = O=C1N[C@H]2[C@H](CS[C@H]2CCCCC(=O)*)N1

B1: MAb 8G7 (antibody, V domains shown)
VH: DIQLQESGPGLVKPSQSLSLTCSVTGYSITSGHYWNWIRQLPGNKMEWMGHISNDGSNRYNPSLKNRISITRDTSKNQFFLKLNSVTTEDTATYYCALFYFAYASFAYWGQGTLVTVSA
VL: DVVMTQTPLSLPVSLGDQASISCRSSQSLLHSNGNTYLHWYLQKPGQSPKLLIYKVSTRFSGVPDRFSGSGSGADFTLQISRVEAEDLGVYLCSQSTHVPPTFGAGTKLVLT
notes: Mouse monoclonal antibody from a hybridoma (ECACC 06081803); also called 8G7-M6
For orientation: Kd means a measure of binding affinity in units of concentration. A low value points to a tighter complex. What is called koff is the rate constant with which the complex falls apart. A high value points to fast dissociation. In general, kon refers to a measure of how fast the partners come together. Low readings indicate slower complex formation, high ones faster complex formation. One may read the IC50 as the concentration needed to halve the response being measured. In experiment [1], B1 had a Ka of 6.3e+08 M⁻¹, a Kd of 1.6 nM, a koff of 0.0059 s⁻¹ and a kon of 3.7e+06 M⁻¹ s⁻¹. For the same molecule, in experiment [2], the binding result was “binds”. Moreover, in the experiment with human C5aR [3], the half-maximal inhibitory concentration (IC50) was determined as 0.214 nM.

B2: MAb 7F3 (antibody, V domains shown)
VH: QVQLQQSGPELVKPGASVKISCKASGYAFSNSWMNWVKQRPGKGLEWIGRIYPGDGDTKYNGKFKGKATLTADKSSSTAYMQLSSLTSEDSAVYFCARFLLISTVTAVDYWGQGTTLTVSS
VL: DVVMTQSPLSLPVSLGNQASISCRSSQSLVHSNGNTYLHWYLQKPGQSPKLLIYKVSNRFSGVPDRFSGSGSGTDFSLKISRVEAEDLGVYFCSQSTLVPLTFGAGTKLELK
As usually defined, the EC50 is the midpoint of the concentration-response curve. Regarding B2, in the experiment with human C5aR [4], a half-maximal effect (EC50) was put at 0.48 nM. The Ka in [1] was 1.4e+09 M⁻¹; in [5], 7.19e+08 M⁻¹; in experiment [7] it was 8.1e+08 M⁻¹; in experiment [8] it was 5.4e+08 M⁻¹; in experiment [9], 4.79e+08 M⁻¹. The equilibrium dissociation constant (Kd) came to 0.7 nM in experiment [1]; 1.39 nM in experiment [5]; 1.2 nM in experiment [7]; 1.8 nM in [8]; 2.09 nM in experiment [9]. In addition, the koff in [1] was determined as 0.00045 s⁻¹; in experiment [5], 0.000462 s⁻¹; in experiment [7] it was 0.00035 s⁻¹; in experiment [8], 0.00038 s⁻¹; in experiment [9], 0.000598 s⁻¹. Besides, the kon in experiment [1] was 640000 M⁻¹ s⁻¹; in experiment [5], 332000 M⁻¹ s⁻¹; in [7], 290000 M⁻¹ s⁻¹; in experiment [8], 210000 M⁻¹ s⁻¹; in experiment [9], 286000 M⁻¹ s⁻¹. The molecule further displayed an IC50 in the experiment with human C5aR [6] of 0.503 nM.

B3: MAb 7H3 (antibody, V domains shown)
VH: EVKLEESGGGLVQPGGSMKLSCVASGFTFSDAWMDWVRQSPEKGLEWVAGIRNRANNHATYYVASVKGRFTVSRDDSKSSVYLQMNSLRAEDAGIYYCTRGDGYFFDYWGQGTTLTVSS
VL: DVVLTQTPLSLSVSLGDQASISCRSGQSLVHSNGNTYLHWYLQKPGQSSKLLIYKVSNRLSGVPDRFSGSGSGTDFTLKISRVEAEDLGVYFCSQTTHVPPTFGGGTKLEIK
notes: Mouse monoclonal antibody from a hybridoma (ECACC 06081802); also called 7H3-N9
Turning to B3, in experiment [1], the Ka came out at 5.97e+07 M⁻¹, the Kd turned out to be 16.7 nM, the koff is 0.00995 s⁻¹ and the kon was 595000 M⁻¹ s⁻¹. The binding result in experiment [2] is given as “binds”. Further, in the experiment with human C5aR [3], the IC50 came to 0.275 nM.

B4: MAb 3C5 (antibody, V domains shown)
VH: DVQLQESGPGLVKPSQSLSLTCSVTGYSITSGNYWNWIRQFPGKKLEWMGHISYDGNNKYNPSLKNRISITRDTSKNQFFLRLNSVTAEDTAAYYCALFYFDYASFTYWGQGTLVTVSA
VL: DVVMTQTPLSLPVSLGDQASISCRSSQSLVHSNGNTYLHWYLRKPGQSPKLLIYKVSNRFSGVPDRFSGSGSGTDFTLKISRVEAEDLGVYFCSQSTHVPPTFGAGTKLELK
Molecule B4 registered an EC50 with human C5aR [10] of 0.021 nM. Also, the “fold improved affinity over 7F3” value in experiment [11] was around 1.5 fold. Moreover, the Ka in experiment [1] came out at 2.1e+09 M⁻¹; in experiment [13] it was 9.6e+08 M⁻¹; in experiment [7], 2.2e+09 M⁻¹; in experiment [8], 1.3e+09 M⁻¹; in experiment [14], 7.16e+08 M⁻¹. The equilibrium dissociation constant (Kd) in experiment [1] was determined as 0.48 nM; in experiment [13], 1.04 nM; in experiment [7] it was 0.45 nM; in experiment [8], 0.76 nM; in [14], 1.4 nM. The koff is 0.0016 s⁻¹ in experiment [1]; 0.00111 s⁻¹ in [13]; 0.0007 s⁻¹ in [7]; 0.00052 s⁻¹ in experiment [8]; 0.00144 s⁻¹ in experiment [14]. In addition, the on-rate (kon) in experiment [1] came to 3.3e+06 M⁻¹ s⁻¹; in experiment [13], 1.06e+06 M⁻¹ s⁻¹; in experiment [7] it was 1.5e+06 M⁻¹ s⁻¹; in experiment [8], 680000 M⁻¹ s⁻¹; in [14], 1.03e+06 M⁻¹ s⁻¹. In the experiment with human C5aR [12], this molecule returned an IC50 of 0.171 nM.
